Source: paper PMC4070910, “Cathepsin S Signals via PAR2 and Generates a Novel Tethered Ligand Receptor Agonist” (PLoS ONE, 2014)
Entries after “also recorded” stand apart in the source; their conditions may differ.

Key:
[1] = tested on: PAR2M2 (glycine40 to alanine); assay: Calcium imaging in HeLa cells transfected with PAR2M2; format: cell-based, human; details: cathepsin S 2 µM, KVDGTS 100 µM
Description: (§1) Human PAR2 cDNA was cloned as an Xho I-Hind III fragment (1206 bp) into pcDNA3.1(−). 10 µg of DNA were diluted into 0.5 ml of DMEM and mixed with 0.5 ml of DMEM containing 10 µl of Lipofectamine 2000 transfection reagent and incubated at room temperature for 20 minutes. HeLa cells were grown to confluence, trypsinized and 1×10^6 cells were pelleted in a 15 ml tube by centrifugation at 1000 rpm for 5 minutes. The DMEM-Lipofectamine 2000-DNA mixture (1 ml) was added to the cell pellet, resuspended gently and incubated at room temperature for 20 minutes. Four ml of complete DMEM with 10% FBS were added to the tube, mixed by inverting the tube several times, plated into a 96-well glass bottom plate at 20,000 cells/well, and placed in a 37°C CO2 incubator. HeLa cells transfected with vector alone or salmon sperm DNA (shown in the figures) were plated as a control. The medium was aspirated two days after transfection. Fura-2 was used as a ratiometric calcium-sensitive indicator as follows. […]
Imaging was performed using a Zeiss Axiovert 200 M microscope platform equipped with a flipping filter wheel for ratiometric imaging. […] The software later analyzed all images taken during each excitation period. Typically, ratiometric changes were measured in 10–20 cells in each image. An average of the fluorescence of the cells in each image was calculated and plotted against time in seconds. […]

[2] = Specific activity of recombinant cathepsin S; format: biochemical; details: Z-VVR-AMC fluorimetric and Z-FR-pNA colorimetric assays
Description: Recombinant human cathepsin S was produced as follows. The human cathepsin S proprotein coding region was isolated by PCR using the forward and reverse primers […] CCTG and […] and a template of plasmid DNA containing the entire coding sequence of human cathepsin S. The PCR product was cut with Nco I and Xho I, and cloned into the pTYB4 expression vector from New England Biolabs for expression in E.coli. Cells were grown in LB medium induced with 0.3 mM IPTG, harvested by centrifugation, resuspended in lysis buffer A (0.5 M NaCl, 0.05 M Tris, 5 mM EDTA, pH 8.0) and lysed in a French press. The lysate was centrifuged and the protein was found predominantly in inclusion bodies which were dissolved in buffer B (10 mM DTT and 8 M urea), and refolded in the presence of buffer B containing 0.7 M L-arginine, 0.01 M glutathione, 0.001 M glutathione disulfide, and 0.005 M EDTA as described. The refolded procathepsin S was concentrated by Minimate Concentrator (Pall Corporation) and washed three times with buffer A. It was activated after adjusting to pH 4.5 with acetic acid, adding DTT to 5 µM and incubating at 37°C for 3 hours. […] The specific activity of cathepsin S was assayed using Z-VVR-AMC in fluorimetric and Z-FR-pNA in colorimetric assays[22] and determined to be 10,000 mU/mg protein.

[3] = tested on: luciferase-PAR2M1 (leucine38 to alanine); assay: Gaussia luciferase release, luciferase-PAR2M1; format: cell-based, human; details: cathepsin S 2 µM, 10 minutes, room temperature, triplicate
Description: Gaussia luciferase cDNA was cloned, without its termination codon, into pcDNA3.1(−) as an Xho I-EcoR I fragment. Human PAR2 cDNA and its mutants, M1, M2 and M3, were generated using PCR primers designed to start after the signal sequence and end with a termination codon: […] and […] . The PCR amplified cDNAs were cloned into EcoR I and Hind III sites C-terminal to Gaussia luciferase cDNA. The resulting plasmids were called pGLPAR2, pGLPAR2M1, pGLPAR2M2 and pGLPAR2M3.
The QuickChange site-directed mutagenesis procedure (Agilent Technologies, Santa Clara, CA) was used to generate PAR2 N-terminal mutants. PAR2M1, with a single amino acid change, was created by substituting the leucine^38 codon, CTT, with alanine, GCT, using the primers: PAR2M1F, […], and PAR2M1R, […]. […]
The plasmid DNAs pGLPAR2, pGLPAR2M1, pGLPAR2M2 and pGLPAR2M3 (10 µg of each) were transfected into 2×10^6 HeLa cells as described above and plated into 10 cm dishes. […] Cells were scraped in order to eliminate the use of trypsin, which could activate PARs, and allowed for the luminescence assay to be performed in a small volume. […] Luminescence assays were performed in triplicate on 50 µl of the supernatants according to the instructions of the manufacturer (New England Biolabs, Ipswich, MA).

[4] = tested on: HeLa cells transfected with salmon sperm DNA; assay: Fura-2 calcium imaging in HeLa cells transfected with salmon sperm DNA (control); format: cell-based; details: HeLa cells transfected with salmon sperm DNA alone
Description: as §1
(§2) Imaging was performed using a Zeiss Axiovert 200 M microscope platform equipped with a flipping filter wheel for ratiometric imaging. […] The software later analyzed all images taken during each excitation period. Typically, ratiometric changes were measured in 10–20 cells in each image. An average of the fluorescence of the cells in each image was calculated and plotted against time in seconds.

[5] = tested on: NHEKs which endogenously express PAR2; assay: Calcium imaging in normal human epidermal keratinocytes (NHEKs); format: cell-based
Description: HeLa cells were obtained from the ATCC and maintained in DMEM supplemented with fetal bovine serum (Fisher Biochemicals), L-glutamine, penicillin and streptomycin. Normal human epidermal keratinocytes (NHEKs) were harvested from neonatal foreskin and maintained in Keratinocyte Serum-Free media supplemented with epidermal growth factor, bovine pituitary extract, L-glutamine, penicillin and streptomycin. All reagents were obtained from Invitrogen unless otherwise noted.
as §1, with “follows. 100 µl of complete DMEM containing 2 µM of Fura-2 were added to each well and left at room temperature in the dark for 1 hr.” for “follows.”
as §2

B1: cathepsin S: Recombinant human cathepsin S, cysteine protease, expressed in E.coli, refolded and activated (protein, UniProt P25774 115-331, looked up)
Cathepsin S: LPDSVDWREKGCVTEVKYQGSCGACWAFSAVGALEAQLKLKTGKLVSLSAQNLVDCSTEKYGNKGCNGGFMTTAFQYIIDNKGIDSDASYPYKAMDQKCQYDSKYRAATCSKYTELPYGREDVLKEAVANKGPVSVGVDARHPSFFLYRSGVYYEPSCTQNVNHGVLVVGYGDLNGKEYWLVKNSWGHNFGEEGYIRMARNKGNHCGIASFPSYPEI
calcium response on PAR2M2 (in words) [1]: did not induce calcium responses; also recorded: not PAR2M2 or PAR2M3
specific activity [2]: 10,000 mU/mg protein
receptor cleavage, luciferase luminescence (in words) [3]: cleaved the native and PAR2M1 receptors
calcium response in cells without PAR2 (in words) [4]: Neither cathepsin S nor any of the peptides induced calcium responses
calcium response in NHEKs (in words) ([5]; KVDGTS 100 µM, cathepsin S 2 µM): activated NHEKs
calcium response to the substance as second agent after KVDGTS (in words) ([5]; NHEKs, KVDGTS 100 µM then cathepsin S 2 µM, second agent at 300 s): attenuated
effect as first agent on calcium response to second agent (in words) ([5]; NHEKs, KVDGTS 100 µM, cathepsin S 2 µM, second agent at 300 s): abolishes the response to the subsequent addtion of KVDGTS
